Source: PMC8071376

How the values were obtained:
[1] = system: His6-RelB (Streptococcus pneumoniae R6); test: DNase I footprinting; settings: DNase I footprinting: 40 mM Tris-HCl pH 7.9, 6 mM MgCl2, 1 mM CaCl2, 10 mM NaCl plus 100 mM NaCl, 1 mM DTT, 10% glycerol, 10 ug/mL heparin or 50 ng …
[2] = system: RelB (untagged, in RelB:RelE-His6 complex);RelE-His6 (Streptococcus pneumoniae R6;Streptococcus pneumoniae R6); test: DNase I footprinting; settings: DNase I footprinting: 40 mM Tris-HCl pH 7.9, 6 mM MgCl2, 1 mM CaCl2, 10 mM NaCl plus 100 mM NaCl, 1 mM DTT, 10% glycerol, 10 ug/mL heparin or 50 ng …

**Q.** For PrelBE 199-bp promoter fragment, which binding [1] is on record?
**A.** 10 µM

**Q.** And the binding [2]?
**A.** 1 µM
